The target in the assay is IE-3 fragment antigen-binding (Fab) region, recombinant, labelled. The assay can be described thus: MST.

B1: mouse ZP2 N-terminal ZP-N1 domain (mZP2-N1), His-tagged (domain or fragment)
chain: VSLPQSENPAFPGTLICDKDEVRIEFSSRFDMEKWNPSVVDTLGSEILNCTYALDLERFVLKFPYETCTIKVVGGYQVNIRVGDTTTDVRYKDDMYHFFCPAIQ
B1: the fold higher affinity than MBP-mZP2(T103-Q138) came out at 30 fold.

For the origin of these results see article doi:10.1101/2025.03.03.641048.
